Molecular target: T1, FITC-HSA-MORF2 (human serum albumin grafted with multiple copies of morpholino MORF2, FITC-labelled) (human, UniProt P02768 25-609, a fraction of the amino groups converted with SM-(PEG)x to maleimido groups and carrying MORF2 via thioether bonds; FITC label)
T1 construct: mature; also called HSA-(MORF2)x; Nanoconjugate 2A
Experiment: confocal microscopy on CD20-expressing Raji cells, without Cy5-Fab′RTX-MORF1
Source text: Thus, we conducted in vitro confocal microscopy study, using CD20-expressing human NHL Raji B cell line (FIG. 7).

- binding result: no binding
B1: CD20 on human Burkitt's B-cell non-Hodgkin's lymphoma Raji cells (receptor, UniProt P11836 1-297, looked up)
chain: MTTPRNSVNGTFPAEPMKGPIAMQSGPKPLFRRMSSLVGPTQSFFMRESKTLGAVQIMNGLFHIALGGLLMIPAGIYAPICVTVWYPLWGGIMYIISGSLLAATEKNSRKCLVKGKMIMNSLSLFAAISGMILSIMDILNIKISHFLKMESLNFIRAHTPYINIYNCEPANPSEKNSPSTQYCYSIQSLFLGILSVMLIFAFFQELVIAGIVENEWKRTCSRPKSNIVLLSAEEKKEQTIEIKEEVVGLTETSSQPKNEEDIEIIPIQEEEEEETETNFPEPPQDQESSPIENDSSP
notes: whole, on cells; also called CD20 antigen; CD20 receptor

— patent publication US20190175751A1 (UNIVERSITY OF UTAH RESEARCH FOUNDATION, published 2019)
